B1: Phage-3710 (peptide)
peptide: EGRYCVPDWMCLGL
modifications: cysteine pairing not given here; also: displayed on phage as pIII fusion
notes: not shown: pIII filament protein of the bacteriophage
B2: Phage-3713 (peptide)
peptide: LEGMCKPAWMCTGF
modifications: cysteine pairing not given here; also: displayed on phage as pIII fusion
notes: as for B1
B3: Phage-3712 (peptide)
peptide: EVWMCRPSWMCDGF
modifications: cysteine pairing not given here; also: displayed on phage as pIII fusion
notes: as for B1
B4: Phage-3711 (peptide)
peptide: IAFRCVPEWMCSAF
modifications: cysteine pairing not given here; also: displayed on phage as pIII fusion
notes: as for B1
B5: Phage-3714 (peptide)
peptide: GQAACVPSWMCSGF
modifications: cysteine pairing not given here; also: displayed on phage as pIII fusion
notes: as for B1
B6: Phage-3762 (peptide, not shown: large carriers)
peptide: LVHLCKPPWMCHGF
notes: Clonal phage of the peptide-180 library, tested as crude phage supernatant
B7: Phage-3761 (peptide, not shown: large carriers)
peptide: EVVACVPEWMCVGF
notes: as for B6
B8: Phage-3758 (peptide, not shown: large carriers)
peptide: YETVCKPLWMCTGF
modifications: cysteine pairing not given here; also: displayed on phage as pIII fusion
notes: as for B6
B9: Phage-3759 (peptide, not shown: large carriers)
peptide: DVGMCRPKWMCDGF
notes: as for B6
B10: Phage-3760 (peptide, not shown: large carriers)
peptide: VLPSCIPSWMCNGF
notes: as for B6

The text below walks through data of patent publication US20260242478A1 (published 2026).

Where no end group is shown, it is not given here.

For the first assay, the target named is T1, PSMA Fab (006 PSMA Fab) (biotinylated (site not stated)).
T1 construct: Biotinylated PSMA Fab captured on neutravidin coated plates in the phage ELISA; also called Anti-PSMA Fab; anti-PSMA Fab
Description: clonal phage supernatant on captured PSMA Fab pre-incubated with the competitor PSMA antigen, anti-M13-HRP detection.
Take B1: the “Phage binding ELISA signal, Anti-PSMA Fab in presence of PSMA antigen” value came out at 0.0705. On the same count and under the same terms, under B2 stands 0.0862. Still for that read-out and setting: under B3 stands 0.0717; under B4, 0.07; under B5, 0.0867.

Another assay deals with T2, PSMA Fab.
T2 construct: also called Anti-PSMA Fab; 006 PSMA Fab
The experiment in a line: clonal phage ELISA; biotinylated PSMA Fab on neutravidin plate, wells pre-incubated with PSMA antigen as competitor; anti-M13 HRP detection.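 Further: crude clonal phage supernatants added to antigen-treated wells without a wash, incubated briefly, then bound phage read out via horse radish–conjugated anti-M13 antibody.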 For orientation: ELISA stands for enzyme-linked immunosorbent assay.
Description: (§1) Clonal phage were harvested as crude supernatants and screened via standard ELISAs. […] Prior to the addition of clonal phage. wells were incubated with blocking buffer and PSMA antigen or blocking buffer alone. Without washing or aspirating, clonal phage supernatants were then added to the wells and incubated for a short time. Wells were then washed followed by detection of bound phage using a horse radish conjugated anti-M13 antibody.
With MEPVCLPEWMCWGF [Phage-3747], the “Phage binding ELISA signal, Anti-PSMA Fab with PSMA antigen” value amounted to 0.0902.

Turning to EEMMCKPDWMCYGF [Phage-3755], the “Phage binding ELISA signal, Anti-PSMA Fab with PSMA antigen” value turned out to be 0.109. On the same count and under the same terms, under VMPRCEPIWMCRGF [Phage-3746] stands 0.0701.

Take QSVMCRPAWMCEGF [Phage-3748]: the “Phage binding ELISA signal, Anti-PSMA Fab with PSMA antigen” value was determined as 0.0813. Consider PGKVCEPIWMCLGF (cysteine pairing not given here; also: displayed on phage as pIII fusion) [Phage-3744], for which the “Phage binding ELISA signal, Anti-PSMA Fab with PSMA antigen” value is 0.124.

As for NSSLCIPSWMCSGF [Phage-3752], the “Phage binding ELISA signal, Anti-PSMA Fab with PSMA antigen” value stood at 0.0738. On the same count and under the same terms, under YHKECIPPWMCMGF [Phage-3756] stands 0.0922. Consider TIMYCKPTWMCTGF [Phage-3757], for which the “Phage binding ELISA signal, Anti-PSMA Fab with PSMA antigen” value amounted to 0.0727. On the same count and under the same terms, under EQPACVPKWMCIGF [Phage-3750] stands 0.0893; under ETPRCVPWWMCIDI [Phage-3751], 0.0731; under FELYCVPAWMCSGF [Phage-3753], 0.16.

Turning to EAKVCKPAWMCDGL [Phage-3754], the “Phage binding ELISA signal, Anti-PSMA Fab with PSMA antigen” value is 0.077. As for WIKECVPDWMCSGF [Phage-3745], the “Phage binding ELISA signal, Anti-PSMA Fab with PSMA antigen” value came to 0.0803. As for VPALCVPNWMCSGL [Phage-3749], the “Phage binding ELISA signal, Anti-PSMA Fab with PSMA antigen” value was 0.0565.

The target in a further assay is T2, PSMA Fab. Description: clonal phage ELISA; biotinylated PSMA Fab on neutravidin plate, blocking buffer alone; anti-M13 HRP detection.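 Further: crude clonal phage supernatants added without washing to wells pretreated with blocking buffer with or without PSMA antigen, short incubation, then washed before detecting bound phage.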
Description: as §1
As for MEPVCLPEWMCWGF [Phage-3747], the “Phage binding ELISA signal, Anti-PSMA Fab” value stood at 1.38. The same measure, in the same setting: under EEMMCKPDWMCYGF [Phage-3755] stands 1.37; under VMPRCEPIWMCRGF [Phage-3746], 1.38; under QSVMCRPAWMCEGF [Phage-3748], 1.38. As to PGKVCEPIWMCLGF (cysteine pairing not given here; also: displayed on phage as pIII fusion) [Phage-3744], the “Phage binding ELISA signal, Anti-PSMA Fab” value was determined as 1.38.

In the case of NSSLCIPSWMCSGF [Phage-3752], the “Phage binding ELISA signal, Anti-PSMA Fab” value stood at 1.37. YHKECIPPWMCMGF [Phage-3756]: the “Phage binding ELISA signal, Anti-PSMA Fab” value is 1.37. The same measure, in the same setting: under TIMYCKPTWMCTGF [Phage-3757] stands 1.37; under EQPACVPKWMCIGF [Phage-3750], 1.38; under ETPRCVPWWMCIDI [Phage-3751], 1.37. Still for that read-out and setting: under FELYCVPAWMCSGF [Phage-3753] stands 1.37; under EAKVCKPAWMCDGL [Phage-3754], 1.37; under WIKECVPDWMCSGF [Phage-3745], 1.38. VPALCVPNWMCSGL [Phage-3749]: the “Phage binding ELISA signal, Anti-PSMA Fab” value turned out to be 1.38.

The next assay addresses T3, PSMA Fab (006 PSMA Fab) (biotinylated (site not stated)).
T3 construct: Captured as biotinylated PSMA Fab on neutravidin coated plates in the phage ELISA; also called Anti-PSMA Fab; anti-PSMA Fab
The experiment in a line: phage ELISA: clonal phage on biotinylated PSMA Fab captured on neutravidin plate, anti-M13 HRP detection.
EPRACVPFWMCLGF [Phage-3720]: the “Phage binding ELISA signal, Anti-PSMA Fab” value stood at 1.42. On the same count and under the same terms, under DVLMCTPRWMCDGF [Phage-3725] stands 1.41; under GENWCVPQWMCDGF [Phage-3721], 1.41; under TLFACVPAWMCDGF [Phage-3726], 1.41. Still for that read-out and setting: under IDRHCVPRWMCDGL [Phage-3727] stands 1.41; under ESRLCVPTWMCTWL [Phage-3728], 1.41; under IERMCMPPWMCSAL [Phage-3716], 1.42. Same read-out and setting: under MEWHCKPKWMCEGF [Phage-3717] stands 1.42; under AYMKCSPAWMCEGF [Phage-3722], 1.41; under PYAVCVPKWMCSGF [Phage-3723], 1.41. Take SEALCVPKWMCHGF [Phage-3719]: the “Phage binding ELISA signal, Anti-PSMA Fab” value was found to be 1.42. The same measure, in the same setting: under YGVQCVPSWMCQGF [Phage-3715] stands 1.42; under ESPICKPSWMCSGL [Phage-3718], 1.42. The same measure, in the same setting: under EEKLCKPAWMCEWF [Phage-3724] stands 1.41.

A further assay concerns the target T4, PSMA Fab (006 PSMA Fab) (biotinylated (site not stated)).
T4 construct: also called Anti-PSMA Fab; anti-PSMA Fab
Description: clonal phage ELISA on biotinylated PSMA Fab captured on neutravidin plate, blocking buffer alone; anti-M13 HRP detection.
Consider B6, for which the “Phage binding ELISA signal, Anti-PSMA Fab” value came to 1.36. Same read-out and setting: under B7 stands 1.36; under B8, 1.36; under B9, 1.36. In the case of B10, the “Phage binding ELISA signal, Anti-PSMA Fab” value was found to be 1.36.

Another assay deals with T1, PSMA Fab (006 PSMA Fab). The experiment in a line: clonal phage supernatant on biotinylated PSMA Fab captured on neutravidin plate, anti-M13-HRP detection.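 Further: before phage were added, wells received PSMA antigen in blocking buffer or blocking buffer alone, with no wash in between, followed by a short phage incubation.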
Description: as §1
B1: the “Phage binding ELISA signal, Anti-PSMA Fab” value came out at 1.43. For B2, the “Phage binding ELISA signal, Anti-PSMA Fab” value is 1.42. In the case of B3, the “Phage binding ELISA signal, Anti-PSMA Fab” value was 1.43. The same measure, in the same setting: under B4 stands 1.43.

Turning to B5, the “Phage binding ELISA signal, Anti-PSMA Fab” value came out at 1.42.

Another assay addresses T3, PSMA Fab (006 PSMA Fab). Description: phage ELISA: clonal phage on biotinylated PSMA Fab captured on neutravidin plate, wells pre-incubated with PSMA antigen as competitor, anti-M13 HRP detection.
Description: as §1
In the case of EPRACVPFWMCLGF [Phage-3720], the “Phage binding ELISA signal, Anti-PSMA Fab in presence of PSMA” value is 0.0796. Turning to DVLMCTPRWMCDGF [Phage-3725], the “Phage binding ELISA signal, Anti-PSMA Fab in presence of PSMA” value turned out to be 0.0822. As for GENWCVPQWMCDGF [Phage-3721], the “Phage binding ELISA signal, Anti-PSMA Fab in presence of PSMA” value is 0.139. Same read-out and setting: under TLFACVPAWMCDGF [Phage-3726] stands 0.0757; under IDRHCVPRWMCDGL [Phage-3727], 0.0751; under ESRLCVPTWMCTWL [Phage-3728], 0.0946.

With IERMCMPPWMCSAL [Phage-3716], the “Phage binding ELISA signal, Anti-PSMA Fab in presence of PSMA” value was 0.0662. Regarding MEWHCKPKWMCEGF [Phage-3717], the “Phage binding ELISA signal, Anti-PSMA Fab in presence of PSMA” value came out at 0.0772. Regarding AYMKCSPAWMCEGF [Phage-3722], the “Phage binding ELISA signal, Anti-PSMA Fab in presence of PSMA” value worked out at 0.0811. Still for that read-out and setting: under PYAVCVPKWMCSGF [Phage-3723] stands 0.0805; under SEALCVPKWMCHGF [Phage-3719], 0.0994. Take YGVQCVPSWMCQGF [Phage-3715]: the “Phage binding ELISA signal, Anti-PSMA Fab in presence of PSMA” value came to 0.0735.

Turning to ESPICKPSWMCSGL [Phage-3718], the “Phage binding ELISA signal, Anti-PSMA Fab in presence of PSMA” value came to 0.0616. On to EEKLCKPAWMCEWF [Phage-3724], for which the “Phage binding ELISA signal, Anti-PSMA Fab in presence of PSMA” value came to 0.096.
